From US8927500
“And” between values parts separate entries of the source, which are not always exact repeats. Identical values can stand only once.

Each substance was assayed against MDM2 (In-house, 41 kD) (UniProt Q00987) (assay: competitive fluorescence polarization, MDM2 with FAM-labeled linear peptide; graded scale of paragraph 458).
Chain of MDM2 (In-house, 41 kD) (Q00987 1-138 limits assumed): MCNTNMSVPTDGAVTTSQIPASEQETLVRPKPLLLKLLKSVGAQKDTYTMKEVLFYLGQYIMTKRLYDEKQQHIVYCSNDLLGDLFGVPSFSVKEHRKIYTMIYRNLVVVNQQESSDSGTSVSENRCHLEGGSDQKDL

IC50 | Substance
< 10 nM | peptidomimetic macrocycle SP755, Ac-tawyanf4CF3e$r5llr$r5a-NH2 (peptide)
> 10 nM and < 100 nM | peptidomimetic macrocycle SP758, Ac-tawya$s8f4CF3ekllr$r5a-NH2 (peptide)
> 100 nM and < 1000 nM | peptidomimetic macrocycle SP752, Ac-t$r5wya$r5f4CF3ekllr-NH2 (peptide)
< 10 nM | peptidomimetic macrocycle SP757, Ac-tawy$s8nf4CF3ekll$r5a-NH2 (peptide)
> 100 nM and < 1000 nM | peptidomimetic macrocycle SP754, Ac-tawya$r5f4CF3ek$r5lr-NH2 (peptide)
> 10 nM and < 100 nM | peptidomimetic macrocycle SP756, Ac-t$s8wyanf4CF3e$r5llr-NH2 (peptide)
> 10 nM and < 100 nM | peptidomimetic macrocycle SP753, Ac-tawy$r5nf4CF3e$r5llr-NH2 (peptide)
